From patent US6740739B1, “Substitutional variants of APO-2 ligand” (Genentech, Inc., priority 1998, dated 2004)

What was measured:
[1] = tested on: Jurkat cells; test: Apoptosis by FACS (PI / FITC-annexin V); format: cell-based, human; details: Apo-2 ligand 3 μg/ml, 24 hours, control 5.9
Protocol: (§1) The effects of the Apo-2 ligand on the 9D cells, as well as on Raji cells (human Burkitt's lymphoma B cell line, ATCC CCL 86) and Jurkat cells (human acute T cell leukemia cell line, ATCC TIB 152) were further analyzed by FACS. The FACS analysis was conducted, using established criteria for apoptotic cell death, namely, the relation of fluorescence staining of the cells with two markers: (a) propidium iodide (“PI”) dye, which stains apoptotic but not live cells, and (b) a fluorescent derivative of the protein, annexin V, which binds to the exposed phosphatidylserine found on the surface of apoptotic cells, but not on live cells [Darzynkiewicz et al., Methods in Cell Biol., 41:15-38 (1994); Fadok et al., J. Immunol., 148:2207-2216 (1992); Koopman et al., Blood, 84:1415-1420 (1994)].
(§2) The 9D cells (FIG. 2B), Raji cells (FIG. 2C), and Jurkat cells (FIG. 2D) were incubated (1×10^6 cells/well) for 24 hours with a media control (left panels), Apo-2 ligand (3 μg/ml, prepared as described in Example 3) (center panels), or anti-Apo-1 ligand antibody, CH11 (1 μg/ml) (right panels). The cells were then washed, stained with PI and with fluorescein thiocyanate (FITC)-conjugatedannexin V (purchased from Brand Applications) and analyzed by flow cytometry. […]

[2] = tested on: Raji cells; test: Apoptosis by FACS (PI / FITC-annexin V); format: cell-based, human; details: Apo-2 ligand 3 μg/ml, 24 hours, control 35.9
Protocol: as §1, §2

[3] = tested on: B lymphocytes; test: Apoptosis by FACS in peripheral blood B cells; format: cell-based, human; details: Apo-2 ligand 3 μg/ml, 3 days, mean ±SE
Protocol: Peripheral blood mononuclear cells (“PBMC&”) were isolated from the blood of human donors by Ficoll density gradient centrifugation using Lymphocyte Separation Medium (LSM®, Organon Teknika). An isolated population of T cells was prepared from the PBMC by removal of B cells through surface Ig binding to an anti-Ig column and removal of monocytes through Fc receptor binding to an Ig column (R & D Systems). An isolated population of B cells was prepared from the PBMC by complement-mediatedelimination of T cells reacted with the anti-CD3 antibody produced by the OKT3 myeloma (ATCC, CRL 8001) and of monocytes reacted with a monocyte-specific antibody produced by the 4F2C13 hybridoma (ATCC, HB 22). Additional monocyte removal was accomplished by adherence to plastic.
The freshly isolated peripheral blood B or T cells (1×10^6 cells/well) were cultured for 3 days in the presence of a media control or Apo-2 ligand (3 μg/ml, prepared as described in Example 3). […] Apoptosis was determined using FACS analysis essentially as described above in Example 4. […] The results are shown in Table 2 below, representing means ±SE of independent experiments [B lymphocytes—9 experiments; T lymphocytes—8 experiments; T lymphocytes plus IL-2-5 experiments], in which 50,000 cells were analyzed per data point. […]

[4] = tested on: SK-N-AS; test: Cell viability by crystal violet staining; format: cell-based, human; details: SK-N-AS neuroblastoma, p53 ?; 24 h
Protocol: The following human tumor cell lines were assayed: A549 (lung carcinoma, ATCC CCL 185); HCT116 (colon carcinoma, ATCC CCL 247); SW480 (colon adenocarcinoma, ATCC CCL 228); MDA231 (breast adenocarcinoma, ATCC HTB 26); HeLa (cervical carcinoma, ATCC CCL 22); ME-180 (cervical carcinoma, ATCC HTB 33); T24 (bladder carcinoma. ATCC HTB 4); SK-N-AS (neuroblastoma, White et al., Proc. Natl. Acad. Sci., 92:5520-5524 (1995)). The cells were plated at 2.5×10^5 cells/ml in 96 well plates and incubated overnight. The cells were cultured in the presence of 2-fold dilutions of Apo-2 ligand (ranging from 100 ng/ml to 0.01 ng/ml). In some of the cultures, a chemotherapeuticagent was also added for 24 hours-cyclohexamide (“CHX”) (50 μg/ml; Sigma Chemicals), Doxorubicin (10-100 μg/ml; Pharmacia), or 5-FU (6 mg/ml; Roche).
After 24 hours of incubation, the cells were stained with 0.5% crystal-violetin 20% methanol. Cell viability was determined by eluting the dye from the stained cells with 0.1M sodium citrate (0.1M citric acid in 50% methanol), and measuring absorbance at 540 nm.

[5] = tested on: HCT116 human colon carcinoma cells; test: Tumor volume in nude mice, osmotic mini-pump infusion; format: in vivo; details: E. coli-expressed Apo-2 ligand (aa 91-281/92-281) 10 mg/kg each day by intraperitoneal osmotic mini-pump; over 3 days; vehicle no change; FIG. 15
Protocol: In the experiment, the nude mice were injected subcutaneously with HCT116 human colon carcinoma cells (ATCC CCL 247) (1×10^6 cells) on each side of the animal. The tumors were then allowed to grow to reach approximately 1 cm diameter (approximately 10 days). On Day 0, the tumor volume was measured with calipers. Volume was calculated as π/6×ab^2, where a=length and b=width. Then osmotic mini-pumps (available from Alza Corp., Model 1003) were implanted intraperitoncally into each animal. The mini-pumps were loaded with either (1) control vehicle (20 mM Tris pH 7.5, 8% Trehalose. 0.01% Tween-20) or (2) Apo-2 ligand. Five animals in each group received either the control vehicle or Apo-2 ligand. The mini-pumps were calibrated to deliver each day 10 mg/kg Apo-2 ligand (10 mg/ml×2 μl/hour) or 2 μl/hour control vehicle.
On Day 3, the tumor volume was again measured, and the animals were sacrificed. […] There was no change in tumor volume in the vehicle group, but a marked reduction in tumor size occurred in mice infused with the Apo-2L. The treatment with the Apo-2L shrunk the tumors by about 50% over 3 days.

B1: Apo-2L: purified soluble His10-tagged human Apo-2 ligand, residues 114-281, from baculovirus-infected Sf9 cells (Example 3); used in Examples 4-14 (protein)
chain: MGHHHHHHHHHHSSGHIDDDDKHMVRERGPQRVAAHITGTRGRSNTLSSPNSKNEKALGRKINSWESSRSGHSFLSNLHLRNGELVIHEKGFYYIYSQTYFRFQEEIKENTKNDKQMVQYIYKYTSYPDPILLMKSARNSCWSKDAEYGLYSIYQGGIFELKENDRIFVSVTNEHLIDMDHEASFFGAFLVG
For B1, the “% apoptotic cells” value [1] was 77.0%, the “% apoptotic cells” value [2] was 73.4% and the “% apoptolic cells” value ([3]; LPS 1 μg/ml, control 44.8 ± 2.8, a=p<0.05) was 55.9 ± 3.2^a %. The “% apoptolic cells” value ([3]; treatment none, control 40.1 ± 4.1, a=p<0.05) was 53.2 ± 3.3^a %, the “Apo-2L SENSITIVITY” value [4] was “+ (>35% death after 24 h with 100 ng/ml Apo-2)” and the “shrinkage of tumors (change in tumor volume)” value [5] was “about 50%”.
